Blank lines part the entries; values can stand above or below the substance they belong to.
How the values were obtained:
[1] = target: recombinant human 4-1BB-Fc chimera (R&D Systems) (human) (UniProt Q07011); experiment: SPR (BIAcore 2000), 4-1BB-Fc coupled to CM5 chip, ligand in flow, 25°C
[2] = target: 4-1BB on CD3-stimulated human T lymphocytes (PBMC) (human) (UniProt Q07011); experiment: flow cytometry on CD3-stimulated PBMC, PE-conjugated antibody
[3] = target: 4-1BB on CD3-stimulated human T lymphocytes (PBMC) (human) (UniProt Q07011); experiment: flow cytometry on CD3-stimulated PBMC, ligand at 10 µg/ml revealed by PE-conjugated streptavidine
[4] = target: 4-1BB on CD3-stimulated human T lymphocytes (PBMC) (human) (UniProt Q07011); experiment: cell-based or functional assay

Sequence of 4-1BB on CD3-stimulated human T lymphocytes (PBMC) (human) (Q07011 24-255): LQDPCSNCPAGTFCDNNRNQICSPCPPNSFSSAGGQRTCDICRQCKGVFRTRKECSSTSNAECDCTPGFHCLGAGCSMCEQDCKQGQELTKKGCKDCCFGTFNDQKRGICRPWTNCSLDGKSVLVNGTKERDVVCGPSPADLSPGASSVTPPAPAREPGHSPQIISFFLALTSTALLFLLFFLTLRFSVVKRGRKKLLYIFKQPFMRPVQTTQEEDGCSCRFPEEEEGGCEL
Sequence of recombinant human 4-1BB-Fc chimera (R&D Systems) (human) (Q07011 24-186, change not shown): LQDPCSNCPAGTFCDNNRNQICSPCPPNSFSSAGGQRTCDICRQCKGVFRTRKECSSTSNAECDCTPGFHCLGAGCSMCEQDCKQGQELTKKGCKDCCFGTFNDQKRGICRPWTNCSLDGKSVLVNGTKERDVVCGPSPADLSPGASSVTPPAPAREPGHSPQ

Kd [1]: 2.3 nM | koff [1]: 0.00052 s⁻¹ | kon [1]: 230000 M⁻¹ s⁻¹
Substance: C51S AviTag-4-1BBL (from UniProt P41273 50-254) (ligand)

percentage of 4-1BB positive activated T cells stained [2]: 64%
Substance: PE-conjugated anti 4-1BB mAb (clone 4B4-1, BD Biosciences) (antibody)

percentage of 4-1BB positive activated T cells stained [3]: 60% | inhibition of the proliferation of CD3-stimulated PBMC (tritiated thymidine incorporation) [4]: 70%
Substance: WT AviTag-4-1BBL (trimeric recombinant human 4-1BBL extracellular domain with N-terminal AviTag, produced in E. coli and refolded) (from UniProt P41273 50-254) (ligand)

— patent publication EP1736482A1
